Measured values reported in patent publication US20220218639A1.

B1: tPA: Tissue plasminogen activator, converts plasminogen into plasmin (protein, UniProt P00750 36-562, looked up)
Tissue-type plasminogen …: SYQVICRDEKTQMIYQQHQSWLRPVLRSNRVEYCWCNSGRAQCHSVPVKSCSEPRCFNGGTCQQALYFSDFVCQCPEGFAGKCCEIDTRATCYEDQGISYRGTWSTAESGAECTNWNSSALAQKPYSGRRPDAIRLGLGNHNYCRNPDRDSKPWCYVFKAGKYSSEFCSTPACSEGNSDCYFGNGSAYRGTHSLTESGASCLPWNSMILIGKVYTAQNPSAQALGLGKHNYCRNPDGDAKPWCHVLKNRRLTWEYCDVPSCSTCGLRQYSQPQFRIKGGLFADIASHPWQAAIFAKHRRSPGERFLCGGILISSCWILSAAHCFQERFPPHHLTVILGRTYRVVPGEEEQKFEVEKYIVHKEFDDDTYDNDIALLQLKSDSSRCAQESSVVRTVCLPPADLQLPDWTECELSGYGKHEALSPFYSERLKEAHVRLYPSSRCTSQHLLNRTVTDNMLCAGDTRSGGPQANLHDACQGDSGGPLVCLNDGRMTLVGIISWGLGCGQKDVPGVYTKVTNYLDWIRDNMRP
B2: α2-antiplasmin: Circulating serpin that rapidly inhibits plasmin (protein)
chain: NQEQVSPLTLLKLGNQEPGGQTALKSPPGVCSRDPTPEQTHRLARAMMAFTADLFSLVAQTSTCPNLILSPLSVALALSHLALGAQNHTLQRLQQVLHAGSGPCLPHLLSRLCQDLGPGAFRLAARMYLQKGFPIKEDFLEQSEQLFGAKPVSLTGKQEDDLANINQWVKEATEGKIQEFLSGLPEDTVLLLLNAIHFQGFWRNKFDPSLTQRDSFHLDEQFTVPVEMMQARTYPLRWFLLEQPEIQVAHFPFKNNMSFVVLVPTHFEWNVSQVLANLSWDTLHPPLVWERPTKVRLPKLYLKHQMDLVATLSQLGLQELFQAPDLRGISEQSLVVSGVQHQSTLELSEVGVEAAAATSIAMSRMSLSSFSVNRPFLFFIFEDTTGLPLFVGSVRNPNPSAPRELKEQQDSPGNKDFLQSLKGFPRGDKLFGPDLKLVPPMEEDYPQFGSPK

Tests used:
preformed blood clots = assay: In-vitro circulating plasma lung model of pulmonary embolism; details: circulating human plasma
Description: The in-vitro circulating plasma lung model 200 of pulmonary embolism (as shown in FIGS. 22 and 23), consists of a 3-D printed circuit 210, designed to mimic lung vasculature, and in which preformed blood clots of known mass are placed. This “lung” is in fluid connection with a reservoir 220 of approximately 200-250 mL of human plasma, type-matched to the clots, that is recirculated with a peristaltic pump 230, passed through a heating element (not shown), then pumped through the lung itself at a physiological constant pressure. An injection port 240 allows injection of reagents, enzymes or other molecules. After lysis is initiated, the “lung” is circulated for one hour. Clots are weighed before and after completion of the experiment reweighed, to provide for percentage of clot lysis information for each treatment regime.
In this Example, pulmonary embolism was simulated using the in-vitro lung model of Example 13 and the ability of the delivery system of the present disclosure was analyzed for its ability to remove clots.
Particularly, human plasma (200-250 mL), recirculated (37° C.) and loaded with approximately 4 grams type-matched clots was injected into the delivery system. After 1 hour of circulation, the clots were removed and weighed.

plasmin = plasmin (Homo sapiens, UniProt P00747); details: binding to the serine in plasmin's active site; cited from earlier work
Chain of plasmin (P00747 581-810 limits assumed): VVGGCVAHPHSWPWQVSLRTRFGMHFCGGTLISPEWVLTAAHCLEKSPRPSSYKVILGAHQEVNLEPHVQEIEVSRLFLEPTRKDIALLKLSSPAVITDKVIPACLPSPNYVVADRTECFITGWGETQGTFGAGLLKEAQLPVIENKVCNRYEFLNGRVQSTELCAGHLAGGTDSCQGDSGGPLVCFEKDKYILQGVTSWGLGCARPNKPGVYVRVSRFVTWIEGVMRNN
Chain of plasmin (P00747 97-580 limits assumed): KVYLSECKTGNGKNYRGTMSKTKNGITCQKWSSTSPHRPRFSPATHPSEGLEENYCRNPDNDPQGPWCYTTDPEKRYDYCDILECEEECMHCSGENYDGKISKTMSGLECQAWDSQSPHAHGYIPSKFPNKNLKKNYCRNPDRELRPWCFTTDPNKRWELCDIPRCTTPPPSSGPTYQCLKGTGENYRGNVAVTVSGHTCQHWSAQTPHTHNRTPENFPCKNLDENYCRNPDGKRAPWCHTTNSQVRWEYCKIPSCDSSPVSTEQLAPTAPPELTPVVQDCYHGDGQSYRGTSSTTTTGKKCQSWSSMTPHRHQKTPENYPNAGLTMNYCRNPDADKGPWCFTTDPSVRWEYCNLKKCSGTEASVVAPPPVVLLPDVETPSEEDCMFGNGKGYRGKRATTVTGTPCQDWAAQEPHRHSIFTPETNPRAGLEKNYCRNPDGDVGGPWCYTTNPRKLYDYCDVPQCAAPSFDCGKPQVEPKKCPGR

| Molecule | reduction in antiplasmin (α2 AP) (preformed blood clots) | rate constant of plasmin inhibition (plasmin) |
| --- | --- | --- |
| B1 | fully depleted | – |
| B2 | – | 4×10^7 M^−1Sec^−1 |
